Assay results reported in PMC2818519 (Journal of structural biology, 2009).

Tests used:
[1] = target: SUR2A nucleotide binding domain 2 (NBD2, G1301-K1546) (murine); assay: SAXS
SAXS = target: the molecule itself; assay: SAXS

Molecule | stoichiometry N [1] | stoichiometry N (SAXS)
SUR2A nucleotide binding domain 2 (NBD2, G1301-K1546) (domain or fragment) | 8 | 
SUR2A nucleotide binding domain 1 (NBD1, D666-890) (domain or fragment, murine, UniProt P70170-1 666-890, looked up) DIAIKVTNGYFSWGSGLATLSNIDIRIPTGQLTMIVGQVGCGKSSLLLAILGEMQTLEGKVYWNNVNESEPSFEATRSRSRYSVAYAAQKPWLLNATVEENITFGSPFNRQRYKAVTDACSLQPDIDLLPFGDQTEIGERGINLSGGQRQRICVARALYQNTNIVFLDDPFSALDIHLSDHLMQEGILKFLQDDKRTVVLVTHKLQYLTHADWIIAMKDGSVLRE |  | 8
